Experimental data taken from the supplement of paper PMC9112550, “Optimization of the antimicrobial peptide Bac7 by deep mutational scanning” (BMC Biology, 2022).

What follows are sequences tested on Escherichia coli TOP10 (assay: shrunken log2 fold change of peptide-encoding DNA abundance (4.5 h post-induction vs induction); higher = less antimicrobial activity (less host growth inhibition)). Conditions: time post-induction: 4.5 h; library: site-saturation at positions 5, 18, 19, 20.
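Note: peptides expressed intracellularly from a pBAD plasmid library in pooled LB shake-flask culture, induced with 0.3% L-arabinose, DNA abundance read by NGS, three biological replicates, DESeq2 with apeglm shrinkage.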

Row | Sequence | shrunken log2 fold change
1 | RRIRERPPRLPRPRPRPCVPPRP | 0.0169
2 | RRIRERPPRLPRPRPRPCVWPRP | 0.0291
3 | RRIRERPPRLPRPRPRPCWCPRP | -0.0114
4 | RRIRERPPRLPRPRPRPCYGPRP | -0.274
5 | RRIRERPPRLPRPRPRPDAVPRP | -0.0146
6 | RRIRERPPRLPRPRPRPDDYPRP | -0.118
7 | RRIRERPPRLPRPRPRPDELPRP | -0.00377
8 | RRIRERPPRLPRPRPRPDGAPRP | 0.129
9 | RRIRERPPRLPRPRPRPDGCPRP | 0.0163
10 | RRIRERPPRLPRPRPRPDHRPRP | -0.00204
11 | RRIRERPPRLPRPRPRPDILPRP | 0.0234
12 | RRIRERPPRLPRPRPRPDIMPRP | -0.196
13 | RRIRERPPRLPRPRPRPDKGPRP | -0.0116
14 | RRIRERPPRLPRPRPRPDLQPRP | 0.00923
15 | RRIRERPPRLPRPRPRPDNGPRP | -0.0776
16 | RRIRERPPRLPRPRPRPDPKPRP | 0.00358
17 | RRIRERPPRLPRPRPRPDQFPRP | -0.154
18 | RRIRERPPRLPRPRPRPDQHPRP | -0.165
19 | RRIRERPPRLPRPRPRPDQSPRP | -0.336
20 | RRIRERPPRLPRPRPRPDRTPRP | -0.0361
21 | RRIRERPPRLPRPRPRPDSAPRP | -0.213
22 | RRIRERPPRLPRPRPRPDSFPRP | 0.0952
23 | RRIRERPPRLPRPRPRPDYHPRP | -0.486
24 | RRIRERPPRLPRPRPRPDYMPRP | 0.0229
25 | RRIRERPPRLPRPRPRPECMPRP | -0.0491

Row | Sequence | shrunken log2 fold change
26 | RRIRERPPRLPRPRPRPEDGPRP | -0.0324
27 | RRIRERPPRLPRPRPRPEEGPRP | -0.007
28 | RRIRERPPRLPRPRPRPEFGPRP | -0.171
29 | RRIRERPPRLPRPRPRPEFLPRP | 0.26
30 | RRIRERPPRLPRPRPRPEGHPRP | 0.11
31 | RRIRERPPRLPRPRPRPEHGPRP | 0.174
32 | RRIRERPPRLPRPRPRPEHLPRP | 0.0163
33 | RRIRERPPRLPRPRPRPEINPRP | -0.2
34 | RRIRERPPRLPRPRPRPEIQPRP | 0.422
35 | RRIRERPPRLPRPRPRPEKCPRP | -0.00149
36 | RRIRERPPRLPRPRPRPEKEPRP | 0.0662
37 | RRIRERPPRLPRPRPRPEKQPRP | -0.00177
38 | RRIRERPPRLPRPRPRPEKTPRP | -0.031
39 | RRIRERPPRLPRPRPRPELFPRP | 0.201
40 | RRIRERPPRLPRPRPRPELGPRP | 0.0169
41 | RRIRERPPRLPRPRPRPELSPRP | 0.314
42 | RRIRERPPRLPRPRPRPEMLPRP | 0.0972
43 | RRIRERPPRLPRPRPRPEMRPRP | 0.151
44 | RRIRERPPRLPRPRPRPENDPRP | -0.0725
45 | RRIRERPPRLPRPRPRPEPNPRP | 0.366
46 | RRIRERPPRLPRPRPRPEQLPRP | 0.00434
47 | RRIRERPPRLPRPRPRPERGPRP | 0.119
48 | RRIRERPPRLPRPRPRPERTPRP | 0.0163
49 | RRIRERPPRLPRPRPRPESHPRP | -0.0157
50 | RRIRERPPRLPRPRPRPEVFPRP | 0.0133

Row | Sequence | shrunken log2 fold change
51 | RRIRERPPRLPRPRPRPEVPPRP | -0.00233
52 | RRIRERPPRLPRPRPRPEVVPRP | 0.122
53 | RRIRERPPRLPRPRPRPEYPPRP | -0.162
54 | RRIRERPPRLPRPRPRPFAGPRP | -1.68
55 | RRIRERPPRLPRPRPRPFAIPRP | -0.122
56 | RRIRERPPRLPRPRPRPFAMPRP | -0.207
57 | RRIRERPPRLPRPRPRPFAYPRP | 0.155
58 | RRIRERPPRLPRPRPRPFDYPRP | 0.155
59 | RRIRERPPRLPRPRPRPFFLPRP | -0.384
60 | RRIRERPPRLPRPRPRPFHIPRP | -0.133
61 | RRIRERPPRLPRPRPRPFIEPRP | -0.59
62 | RRIRERPPRLPRPRPRPFIGPRP | -0.0528
63 | RRIRERPPRLPRPRPRPFIYPRP | -0.0998
64 | RRIRERPPRLPRPRPRPFKEPRP | -0.346
65 | RRIRERPPRLPRPRPRPFKMPRP | -0.559
66 | RRIRERPPRLPRPRPRPFMEPRP | -0.00484
67 | RRIRERPPRLPRPRPRPFMPPRP | -0.777
68 | RRIRERPPRLPRPRPRPFMSPRP | -0.0685
69 | RRIRERPPRLPRPRPRPFMWPRP | -0.262
70 | RRIRERPPRLPRPRPRPFNLPRP | -0.233
71 | RRIRERPPRLPRPRPRPFPVPRP | -0.214
72 | RRIRERPPRLPRPRPRPFQMPRP | -0.112
73 | RRIRERPPRLPRPRPRPFRCPRP | 0.00668
74 | RRIRERPPRLPRPRPRPFRKPRP | -0.534
75 | RRIRERPPRLPRPRPRPFRRPRP | 0.0491
